The chains are these.
B1: Chromodomain-helicase-DNA-binding protein 4, residues 365 to 417; numbered along this chain, Q14839 (parent)
chain: YETDHQDYCEVCQQGGEIILCDTCPRAYHMVCLDPDMEKAPEGKWSCPHCEKE
B2: Calcium-binding protein 2, residues 155 to 219; numbered along this chain, Q9NPB3 (parent)
chain: RELRDAFREFDTNGDGRISVGELRAALKALLGERLSQREVDEILQDVDLNGDGLVDFEEFVRMMS

± gives the uncertainty stated by the source.

In one data set the parent is B1. Briefly: abundance fitness (aPCA) (normalised: wild type 0, dead -1); higher = more abundant; growth selection in yeast, the domain comes from the species named. The settings on record: Homo sapiens.
As for C50N, the abundance fitness is -0.313 ± 0.29.

Variants of B2 are the subject of another data set. Described as above. The settings on record: Homo sapiens.
As for RELRIAFREFDTNGDGRISVGELRAALKALLGERLSQREVDEILQDVDLNGDGLVDFEEFVRMMS [D5I], the abundance fitness is -0.219 ± 0.08.

Regarding RELRPAFREFDTNGDGRISVGELRAALKALLGERLSQREVDEILQDVDLNGDGLVDFEEFVRMMS [D5P], the abundance fitness is -0.665 ± 0.064.

On to RELRLAFREFDTNGDGRISVGELRAALKALLGERLSQREVDEILQDVDLNGDGLVDFEEFVRMMS [D5L], for which the abundance fitness was -0.32 ± 0.042.

Turning to RELRCAFREFDTNGDGRISVGELRAALKALLGERLSQREVDEILQDVDLNGDGLVDFEEFVRMMS [D5C], the abundance fitness was -0.178 ± 0.069.

Take RELRAAFREFDTNGDGRISVGELRAALKALLGERLSQREVDEILQDVDLNGDGLVDFEEFVRMMS [D5A]: the abundance fitness is -0.226 ± 0.049.

As to RELRMAFREFDTNGDGRISVGELRAALKALLGERLSQREVDEILQDVDLNGDGLVDFEEFVRMMS [D5M], the abundance fitness was -0.171 ± 0.061.

Consider RELRFAFREFDTNGDGRISVGELRAALKALLGERLSQREVDEILQDVDLNGDGLVDFEEFVRMMS [D5F], for which the abundance fitness is -0.066 ± 0.078.

As for RELRNAFREFDTNGDGRISVGELRAALKALLGERLSQREVDEILQDVDLNGDGLVDFEEFVRMMS [D5N], the abundance fitness is -0.034 ± 0.059.

For RELRGAFREFDTNGDGRISVGELRAALKALLGERLSQREVDEILQDVDLNGDGLVDFEEFVRMMS [D5G], the abundance fitness was -0.318 ± 0.05.

As for RELRHAFREFDTNGDGRISVGELRAALKALLGERLSQREVDEILQDVDLNGDGLVDFEEFVRMMS [D5H], the abundance fitness was -0.159 ± 0.062.

On to RELREAFREFDTNGDGRISVGELRAALKALLGERLSQREVDEILQDVDLNGDGLVDFEEFVRMMS [D5E], for which the abundance fitness was -0.054 ± 0.056.

Regarding RKLRDAFREFDTNGDGRISVGELRAALKALLGERLSQREVDEILQDVDLNGDGLVDFEEFVRMMS [E2K], the abundance fitness was -0.158 ± 0.1.

Consider RDLRDAFREFDTNGDGRISVGELRAALKALLGERLSQREVDEILQDVDLNGDGLVDFEEFVRMMS [E2D], for which the abundance fitness is -0.677 ± 0.37.

RPLRDAFREFDTNGDGRISVGELRAALKALLGERLSQREVDEILQDVDLNGDGLVDFEEFVRMMS [E2P]: the abundance fitness was -0.21 ± 0.076.

As for RGLRDAFREFDTNGDGRISVGELRAALKALLGERLSQREVDEILQDVDLNGDGLVDFEEFVRMMS [E2G], the abundance fitness was -0.15 ± 0.096.

For the variant RQLRDAFREFDTNGDGRISVGELRAALKALLGERLSQREVDEILQDVDLNGDGLVDFEEFVRMMS [E2Q], the abundance fitness was -0.114 ± 0.064.

For RVLRDAFREFDTNGDGRISVGELRAALKALLGERLSQREVDEILQDVDLNGDGLVDFEEFVRMMS [E2V], the abundance fitness was -0.357 ± 0.091.

As to RCLRDAFREFDTNGDGRISVGELRAALKALLGERLSQREVDEILQDVDLNGDGLVDFEEFVRMMS [E2C], the abundance fitness was -0.472 ± 0.19.

As to RYLRDAFREFDTNGDGRISVGELRAALKALLGERLSQREVDEILQDVDLNGDGLVDFEEFVRMMS [E2Y], the abundance fitness was -0.306 ± 0.15.

Turning to RHLRDAFREFDTNGDGRISVGELRAALKALLGERLSQREVDEILQDVDLNGDGLVDFEEFVRMMS [E2H], the abundance fitness is -0.086 ± 0.13.

Take RRLRDAFREFDTNGDGRISVGELRAALKALLGERLSQREVDEILQDVDLNGDGLVDFEEFVRMMS [E2R]: the abundance fitness was -0.128 ± 0.058.

On to RSLRDAFREFDTNGDGRISVGELRAALKALLGERLSQREVDEILQDVDLNGDGLVDFEEFVRMMS [E2S], for which the abundance fitness was -0.355 ± 0.13.

Turning to RTLRDAFREFDTNGDGRISVGELRAALKALLGERLSQREVDEILQDVDLNGDGLVDFEEFVRMMS [E2T], the abundance fitness was -0.093 ± 0.067.

As to RALRDAFREFDTNGDGRISVGELRAALKALLGERLSQREVDEILQDVDLNGDGLVDFEEFVRMMS [E2A], the abundance fitness is -0.509 ± 0.084.

As for RLLRDAFREFDTNGDGRISVGELRAALKALLGERLSQREVDEILQDVDLNGDGLVDFEEFVRMMS [E2L], the abundance fitness is -0.612 ± 0.058.

On to RWLRDAFREFDTNGDGRISVGELRAALKALLGERLSQREVDEILQDVDLNGDGLVDFEEFVRMMS [E2W], for which the abundance fitness is -0.344 ± 0.075.

Turning to CELRDAFREFDTNGDGRISVGELRAALKALLGERLSQREVDEILQDVDLNGDGLVDFEEFVRMMS [R1C], the abundance fitness is -0.26 ± 0.16.

As for KELRDAFREFDTNGDGRISVGELRAALKALLGERLSQREVDEILQDVDLNGDGLVDFEEFVRMMS [R1K], the abundance fitness came out at 0.12 ± 0.37.

Turning to NELRDAFREFDTNGDGRISVGELRAALKALLGERLSQREVDEILQDVDLNGDGLVDFEEFVRMMS [R1N], the abundance fitness came to 0.078 ± 0.084.

For the variant EELRDAFREFDTNGDGRISVGELRAALKALLGERLSQREVDEILQDVDLNGDGLVDFEEFVRMMS [R1E], the abundance fitness was determined as 0.423 ± 0.36.

Regarding AELRDAFREFDTNGDGRISVGELRAALKALLGERLSQREVDEILQDVDLNGDGLVDFEEFVRMMS [R1A], the abundance fitness was -0.114 ± 0.33.

Consider MELRDAFREFDTNGDGRISVGELRAALKALLGERLSQREVDEILQDVDLNGDGLVDFEEFVRMMS [R1M], for which the abundance fitness turned out to be 0.206 ± 0.21.

In the case of SELRDAFREFDTNGDGRISVGELRAALKALLGERLSQREVDEILQDVDLNGDGLVDFEEFVRMMS [R1S], the abundance fitness is -0.113 ± 0.1.

As for GELRDAFREFDTNGDGRISVGELRAALKALLGERLSQREVDEILQDVDLNGDGLVDFEEFVRMMS [R1G], the abundance fitness was -0.204 ± 0.11.

TELRDAFREFDTNGDGRISVGELRAALKALLGERLSQREVDEILQDVDLNGDGLVDFEEFVRMMS [R1T]: the abundance fitness was -0.007 ± 0.19.

Take RELLDAFREFDTNGDGRISVGELRAALKALLGERLSQREVDEILQDVDLNGDGLVDFEEFVRMMS [R4L]: the abundance fitness is -0.526 ± 0.069.

In the case of RELVDAFREFDTNGDGRISVGELRAALKALLGERLSQREVDEILQDVDLNGDGLVDFEEFVRMMS [R4V], the abundance fitness is -0.107 ± 0.049.

Regarding RELSDAFREFDTNGDGRISVGELRAALKALLGERLSQREVDEILQDVDLNGDGLVDFEEFVRMMS [R4S], the abundance fitness was -0.276 ± 0.083.

For RELNDAFREFDTNGDGRISVGELRAALKALLGERLSQREVDEILQDVDLNGDGLVDFEEFVRMMS [R4N], the abundance fitness is -0.027 ± 0.12.

Regarding RELYDAFREFDTNGDGRISVGELRAALKALLGERLSQREVDEILQDVDLNGDGLVDFEEFVRMMS [R4Y], the abundance fitness is -0.544 ± 0.36.

For the variant RELMDAFREFDTNGDGRISVGELRAALKALLGERLSQREVDEILQDVDLNGDGLVDFEEFVRMMS [R4M], the abundance fitness was -0.144 ± 0.095.

Regarding RELGDAFREFDTNGDGRISVGELRAALKALLGERLSQREVDEILQDVDLNGDGLVDFEEFVRMMS [R4G], the abundance fitness was -0.255 ± 0.086.

RELEDAFREFDTNGDGRISVGELRAALKALLGERLSQREVDEILQDVDLNGDGLVDFEEFVRMMS [R4E]: the abundance fitness came to 0.217 ± 0.27.

For the variant RELKDAFREFDTNGDGRISVGELRAALKALLGERLSQREVDEILQDVDLNGDGLVDFEEFVRMMS [R4K], the abundance fitness stood at 0.064 ± 0.077.

For the variant RELFDAFREFDTNGDGRISVGELRAALKALLGERLSQREVDEILQDVDLNGDGLVDFEEFVRMMS [R4F], the abundance fitness was -0.321 ± 0.16.

On to RELTDAFREFDTNGDGRISVGELRAALKALLGERLSQREVDEILQDVDLNGDGLVDFEEFVRMMS [R4T], for which the abundance fitness is -0.138 ± 0.097.

In the case of RELADAFREFDTNGDGRISVGELRAALKALLGERLSQREVDEILQDVDLNGDGLVDFEEFVRMMS [R4A], the abundance fitness is -0.28 ± 0.099.

Take RELHDAFREFDTNGDGRISVGELRAALKALLGERLSQREVDEILQDVDLNGDGLVDFEEFVRMMS [R4H]: the abundance fitness was -0.074 ± 0.1.

In the case of RELQDAFREFDTNGDGRISVGELRAALKALLGERLSQREVDEILQDVDLNGDGLVDFEEFVRMMS [R4Q], the abundance fitness is -0.21 ± 0.11.

Consider RELDDAFREFDTNGDGRISVGELRAALKALLGERLSQREVDEILQDVDLNGDGLVDFEEFVRMMS [R4D], for which the abundance fitness is -0.052 ± 0.15.

On to RESRDAFREFDTNGDGRISVGELRAALKALLGERLSQREVDEILQDVDLNGDGLVDFEEFVRMMS [L3S], for which the abundance fitness is -0.473 ± 0.13.

RENRDAFREFDTNGDGRISVGELRAALKALLGERLSQREVDEILQDVDLNGDGLVDFEEFVRMMS [L3N]: the abundance fitness is -0.345 ± 0.16.

For REYRDAFREFDTNGDGRISVGELRAALKALLGERLSQREVDEILQDVDLNGDGLVDFEEFVRMMS [L3Y], the abundance fitness is -0.139 ± 0.17.

As for REWRDAFREFDTNGDGRISVGELRAALKALLGERLSQREVDEILQDVDLNGDGLVDFEEFVRMMS [L3W], the abundance fitness was -0.187 ± 0.1.

In the case of REIRDAFREFDTNGDGRISVGELRAALKALLGERLSQREVDEILQDVDLNGDGLVDFEEFVRMMS [L3I], the abundance fitness was -0.095 ± 0.2.

Consider RETRDAFREFDTNGDGRISVGELRAALKALLGERLSQREVDEILQDVDLNGDGLVDFEEFVRMMS [L3T], for which the abundance fitness is -0.281 ± 0.081.

For the variant RECRDAFREFDTNGDGRISVGELRAALKALLGERLSQREVDEILQDVDLNGDGLVDFEEFVRMMS [L3C], the abundance fitness is -1 ± 0.25.

For the variant RERRDAFREFDTNGDGRISVGELRAALKALLGERLSQREVDEILQDVDLNGDGLVDFEEFVRMMS [L3R], the abundance fitness was -0.729 ± 0.073.

In the case of REFRDAFREFDTNGDGRISVGELRAALKALLGERLSQREVDEILQDVDLNGDGLVDFEEFVRMMS [L3F], the abundance fitness is -0.113 ± 0.2.

For REVRDAFREFDTNGDGRISVGELRAALKALLGERLSQREVDEILQDVDLNGDGLVDFEEFVRMMS [L3V], the abundance fitness is -0.15 ± 0.058.

As for REERDAFREFDTNGDGRISVGELRAALKALLGERLSQREVDEILQDVDLNGDGLVDFEEFVRMMS [L3E], the abundance fitness was -0.274 ± 0.12.

Turning to REPRDAFREFDTNGDGRISVGELRAALKALLGERLSQREVDEILQDVDLNGDGLVDFEEFVRMMS [L3P], the abundance fitness was -0.441 ± 0.11.

As to REDRDAFREFDTNGDGRISVGELRAALKALLGERLSQREVDEILQDVDLNGDGLVDFEEFVRMMS [L3D], the abundance fitness was -0.497 ± 0.17.

Consider REMRDAFREFDTNGDGRISVGELRAALKALLGERLSQREVDEILQDVDLNGDGLVDFEEFVRMMS [L3M], for which the abundance fitness was 0.012 ± 0.068.

As to REQRDAFREFDTNGDGRISVGELRAALKALLGERLSQREVDEILQDVDLNGDGLVDFEEFVRMMS [L3Q], the abundance fitness is 0.018 ± 0.095.

Turning to REARDAFREFDTNGDGRISVGELRAALKALLGERLSQREVDEILQDVDLNGDGLVDFEEFVRMMS [L3A], the abundance fitness is -0.302 ± 0.064.

Values taken from the Human Domainome abundance scans (Beltran et al. 2025).
